Results on 19 sequences are retold here after the DeepSol protein solubility set.

The data set can be described thus: soluble on expression in E. coli; label from the status in PepcDB or PDB records.
In the case of “MFNKAIVIGGSMAGKFAAKALSTSFKEVIIIEASERWDGKSSRKRVPQSNHPHVLLKGGENAIEELFPNITDELIEAGSIVNNFTRDLKWHQFGLWKQPFIGEVHMIQQSRPLLEWNIQKRIHQISNITIKYETLVKGLLVDEKLNKVCGVKVKYLETDAQEEVHADLVVDASGFGSKSIEWLREYEIEVQEEKVRINLFYATKMFKLKENEELDCCNMLMSPSFPDNPYGVLIQTIEDNRYFVTFSGYANEKAPQTDDEFYDFAENLSISNVTDFLNKAVAISDIKTYKIPYQVRRRFDLTTNMPEGLLVVGDAHCRFDPVFGQGVSVAAMEARQLQLLLQGRKQLDKTFTQQFYKKAATIIETPWEMTTTEISRHPQLKRELTIKQKFQLWYTKQIYQLSATDSDVYIRLVKVMNLIRSPFHLFHPKVLLAVLLKRKKLEHHHHHH”, the “soluble on expression in E. coli” value was “not soluble”.

Consider “MFNYSTKDANLSNKTILVTGAGAGIGRTAALTYAQLGATVILLGKTVSKLEAVYDEIVALGLAEPAIIPLDLKGATKQNYIDMSSTISSQFGHLDGVLLNASILGELTPFTQMHEQVFNDVMKVNVTAQCLLAQTLIPTLLLAPNASLVFTSSGVGSQGRAYWGQYSISKFATEGMMQVIADEYEGSNLRTNAINPGATNTNMRSCAFPAEDKDELATPEDIMPLYVYLMSDDSLEINGQTLKAQ”, for which the “soluble on expression in E. coli” value is recorded as “not soluble”.

As to “MFPEILNNEKLRLENIKKIYESSKSGYESAKQLYEQQVNNPEVSDEQKSENLEKLKESRGDLDNLQKKIVELQAKIENLSKLGGQQGNPFKKLF”, the “soluble on expression in E. coli” value was “not soluble”.

As to “MFPIASRRILLNASVLPLRLCNRNFTTTRISYNVIQDLYLRELKDTKLAPSTLQDAEGNVKPWNPPQKPNLPELELQGPEALKAYTEQNVETAHVAKESEEGESEPIEEDWLVLDDAEETKESH”, the “soluble on expression in E. coli” value is “not soluble”.

As to “MFQVQKELASHEAVVVALFEEEKTSSFVQELDKAFEGQLQVLLEEKELSTKKKAISKVHSLGKTDVKRYYFVGLGKKESYTTETLRSALGKTFKTLQAAKVQDAAILLDSFVTEKLDAIDVAHIAAEVQGLGTYELQTYKSDKKDRVELEKFTAITAEDAQEIEAALTVGYVHGRATNSARTLVNMPPNVLTATKLAEYAVELAEKYDMDYKVLEKEEMEELGMGALLAVNQGSVEPPKMIALIYKGKEEWTDVIGFVGKGITYDTGGYSLKPREGMVGMKGDMGGAAAVLGAMEIIGELRPEQNVIAVIPSTDNVVSGTAFKPDDVITSMSGKTIEVLNTDAEGRLALADGITYAKKLGANYLIDVATLTGGVIVALGNHTTGAMTNNEELFEQVLEASMETDESIWQLPIFDRDKERVRNSKFADLNNSPGREGHAVMAGTFIGEFAEDTPWVHLDIAGTSESSGAHDLGPAGATGAMVRTLATLVERFGEE”, the “soluble on expression in E. coli” value was “not soluble”.

With “MFRNAAELVAQAKEQNVKIAEIMIQCEMETRSISREEVIAGMEKNLVVMEQAVERGIRGVKSPTGLTGGDAVKVQAYMKSGKGLSGDTILDAVSKAVATNEVNAAMGIICATPTAGSAGTVPGVLFALREKLQPTREEMIEFLFTAGAFGMVVANNACISGAAGGCQAEVGSASGMAAAAAVEMAGGTQEQAATAMAISLKNMLGLVCDPVAGLVEVPCVKRNAAGAANAMISADLALAGVTSTIPCDEVIEAMFRIGQTMPVALRETAEGGLAATPTGRRLQEEIFGKTNN”, the “soluble on expression in E. coli” value is listed as “not soluble”.

As for “MFRRIPLGRFLTRKIHNQTNGLIVPTTNVQKQQKRQILFKMGNETPARVVGYYVVFPVIPEETVENNCFMYNIAKNEDWPKLATAEPRELYEGTVRMLMDYGATVMEHMEHLATLPAEERKFENVVEPLLTEEYEVNFAFQTLVLKMLTDWPDCNRKLFDADLHHIKIMCARDQMEKLTNKDFQDAIKQLYEAKDGLSEWQSRLLEWYLLEIKASGLDKHDDKTRKVLGSWSKFVDEYRSKYITGVMSTNDQQTFVVTDQKVIKDAPPHVLQKLAVDEQNWESGPWRGRMTPHTIYPFMQYCGDRQLRATAWEKWTSKAGFDHDFYNNSINIEELRHNNEGLAKTLGYSSVAEHRLANKMAASPETVRGFINALQRRIRPVVIDRMESWSAWAGRCELITGELQAYDMPYVCRKEAEHHYEFFFQLKSSNFSFFRVNPLDLMNHFPFWPTFQNIMGVIGHIFNLEFKDITDKGLEKAHADVRIYSVGDKFSGQHYGRLYIDPYDRQNKRGGWNVMLARPESKERGLDKIVYFIGSAIAPTSNGPSLLHHQQLQQLLFHFGRSVQLLLSQSPYRDISIPWSPFYASDWDAADMFPTFLQMFVTKPNLLATISSPHQITKQSLTEEHANSVALTISRASLWETYRTLFWSDFDLSIYEMEDRKQKFWLDMYKQMYEEYFPFKRAKNDYQPCSFTPIFALQPHMSMYYRKLWAEMLALDIHETFDEEDNEVQTGERLKTTILNRGSGDVAKELFKRFQGRNPSVGAICDHYAPPMAIQDEMEMSENQRR”, the “soluble on expression in E. coli” value was “not soluble”.

With “MFRSVVVSVRQPAVAGYFYPDDPLTLKQTVLNFLDQAPIHKPAPKAILVPHAGYVYSGAVAASAYASLRDKKDTINKIILLGPAHRLYFKGIAYDPVDKFATPLGEIDQDKELLTQIIDLPYVYSLPEAHQNEHCLEVQLPFCQMIFSKFKILPLVIGETNPQDVARLIARIWGGDDTLLIISSDLSHYLPYHIAQREDKKTCLSIDTLNGEEILHDAACGYFPLRGFLYFGRQNHVYSRLLDLRNSGDTAGDKERVVGYAAYHFYQKLKFSEHCADELKYIAKETIRLQTEENKALTINYNDYSQLLQMRVPTFITLKKNGMLRGCMGSLTTKDPLAENIIYNSIRAASADPRFPQIKPCELKELSLTISLIKPLSPLHFDSEEELKSQLQIGLDGLVLICGPYQATFLPSVWESVKTKDEFINHLKLKMGLSENFWSSEMRALRYATEIIKLEHHHHHH”, the “soluble on expression in E. coli” value was “not soluble”.

Regarding “MFRWLFQSEGVTRSFDTPSETQSARDDRKTIGDYADNFLLFDLVMGEVEMAVIRFEIEKEEKEEAERKAERRPDYSWLISGNMNRARKQLSINEKNRIENACERLKPCEWSKTIDTWKIKTQNPSTRDQIIENFVIATHETIQSRKHEPTITEVLKNFATGRSGSLHTVSHGELPRVGSGRNISELSFIELQEMV”, the “soluble on expression in E. coli” value is “not soluble”.

Turning to “MFSAPLENTMLCNMGGSHEKARARENERMRERERGKEQRTYFATGSLARCQAGSVRRAPGTRRHPGSSTVQGFGTVVSLEANKEMKKEETFFFASLFLYRLGGPLTGTVGYANKTTGR”, the “soluble on expression in E. coli” value was “not soluble”.

Turning to “MFTAKCAMQNIRNVAIVGSGQMGSGIAQVTASSGFNVMLADVNKKALDRAMKAISQSVTHLSKKQKGTDKEKSDFVTLTMSRIKTCNNVSTAVADADLIIEAAIENIDLKRGIFAQIEQSCKKDSILTTNTSSFLLEDVAKGLQDKTRFGGLHFFNPVPVMKLLEVIRSDDTSDETYATLIKFGTAVGKTTVACKDSPGFIVNRLLIPYFFEAARMYERGDASMTDIDEAMKLGAGHPMGPFELADYIGLDTVKFVMDGWAAKYPEVQLFEASPLVDKLVAEGKLGRKTGDGFYSYKK”, the “soluble on expression in E. coli” value is listed as “not soluble”.

Consider “MFTGSIVALVTPMDEKGNVSRSCLKKLIDYHVANGTSAIVSVGTTGESATLSHDEHGDVVMMTLELADGRIPVIAGTGANATAEAISLTQRFNDSGIVGCLTVTPYYNRPTQEGLFQHFKAIAEHTDLPQILYNVPSRTGCDMLPETVGRLAEIKNIIAIKEATGNLTRVHQIKELVSDDFILLSGDDASALDFMQLGGHGVISVTANVAAREMADMCKLAAEGQFAEARAINQRLMPLHNKLFVEPNPIPVKWACKALGLVATDTLRLPMTPITDHGRDIVKAALQHAGLL”, for which the “soluble on expression in E. coli” value was “not soluble”.

With “MFTIKTDDLTHPAVQALVAYHISGMLQQSPPESSHALDVQKLRNPTVTFWSVWEGEQLAGIGALKLLDDKHGELKSMRTAPNYLRRGVASLILRHILQVAQDRCLHRLSLETGTQAGFTACHQLYLKHGFADCEPFADYRLDPHSRFLSLTLCENNELP”, the “soluble on expression in E. coli” value was “soluble”.

“MFVELNNLLNTTPDRAEQGKLTLLCDAKTDGSFLVHHFLSFYLKANCKVCFVALIQSFSHYSIVGQKLGVSLTMARERGQLVFLEGLKSAVDVVFQAQKEPHPLQFLREANAGNLKPLFEFVREALKPVDSGEARWTYPVLLVDDLSVLLSLGMGAVAVLDFIHYCRATVCWELKGNMVVLVHDSGDAEDEENDILLNGLSHQSHLILRAEGLATGFCRDVHGQLRILWRRPSQPAVHRDQSFTYQYKIQDKSVSFFCQRNVSCCSVT”: the “soluble on expression in E. coli” value was “soluble”.

For “MFYDGYAYHGTTFEQTYRCYPSSFIDKPQIESGDKIIMPPSALDRLASLQIDYPMLFELRNASTDSFSHCGVLEFIAEEGVIYIPYWMMQNLLLQEGDMVRVRNVTLPKGTYVKLQPHTTDFLDIANPKAILETALRNYSCLTVGDSIMVPYNNKKYFIDIVEAKPSNGISIIETDCEVDFAPPLDYKEPERPVAPAPAKGEAKAKEVDVAEAEPKFNPFTGSGRRLDGRPLSYEPQPGAANSNGQSHPVASSSSSGSEKATQQNRGKLVFGSNVERSTKETTKVGAGKDRKQEEEAEKEAKFQAFSGKKYSLRG”, the “soluble on expression in E. coli” value is recorded as “soluble”.

Regarding “MGADGGTIPKRCELVKERKKKEKLDKHVKNATKWRNCQLTQLPLKRPVIACRFGKLYNKEDVINSILSKTISKSASASHIKGPKDFVELKLTLNKDFKRGDVKGDDYNDVNQTEFICPITNVPMNGIQSFLVNWQCGCVYSEKAQQEVKSSNCHVCGGPYDATKMVILNPEPEQLELYKLKWEAEKAEKAAAKKDKAKKTAEKMEAAASLAAGSGGEASSVAPGPSGSGVGKHVDLKKKLEIAKLTGGSTSEKKAEKRKANTDIQSDPTTSDTYKKLFTTCEAAKNKTEGHWVTYNPLYY”, the “soluble on expression in E. coli” value is given as “soluble”.

Regarding “MGAEGRLYWDEGEGEGPYRLDRFRLLPAEGGFRLLWQGKGELPWPWARVRLRLFGKRLLRAHVEGEAHAAEEGGVLLPPFREALLEVEGLEHHHHHH”, the “soluble on expression in E. coli” value is recorded as “not soluble”.

Turning to “MGAFFVGAIWLTAAEAFCPAPKGLLPATVLRVVDGDTLHLKDGRRLRMIGLNAPELAGKGRPAEPFAEAARQRLRQLVAQSGGRVGLLPGRERQDRYGRVLAHVYGVTGINFEARLIAEGLAYRIAVLPNVALASCQKAAENHARRAGLGLWRRSPVLKAQQIHRAGFALFEGRVSRVQRNRGGLWITLQGQVVLRIAPNVLRRFDRRLLSGLSGRRIEARGWVVDRSRQPGRQSAHPRWMLSVTDPSMLGLILEHHHHHH”, the “soluble on expression in E. coli” value is given as “not soluble”.

As for “MGAFLDKPKMEKHNAQGQGNGLRYGLSSMQGWRVEMEDAHTAVIGLPSGLESWSFFAVYDGHAGSQVAKYCCEHLLDHITNNQDFKGSAGAPSVENVKNGIRTGFLEIDEHMRVMSEKKHGADRSGSTAVGVLISPQHTYFINCGDSRGLLCRNRKVHFFTQDHKPSNPLEKERIQNAGGSVMIQRVNGSLAVSRALGDFDYKCVHGKGPTEQLVSPEPEVHDIERSEEDDQFIILACDGIWDVMGNEELCDFVRSRLEVTDDLEKVCNEVVDTCLYKGSRDNMSVILICFPNAPKVSPEAVKKEAELDKYLECRVEEIIKKQGEGVPDLVHVMRTLASENIPSLPPGGELASKRNVIEAVYNRLNPYKNDDTDSTSTDDMWLEHHHHHH”, the “soluble on expression in E. coli” value was “soluble”.
